Assay results published in PMC9864249.
Blank lines part the entries; values can stand above or below the molecule they belong to.

Assays:
[1] = molecular target: GST-ZZUD (ZU5-ZU5-UPA-DD spectrin-binding domain of erythrocyte ankyrin, wild type) (human) (UniProt P16157); experiment: pull-down; sedimentation assay: GST-ZZUD or GST-ZZUDL1340P adsorbed on Glutathione Sepharose 4B; His(6)GFP–AnkBD 0–2 µM; 50 mM Tris–HCl, 150 mM NaCl, 2 mM DTT, pH 7.5; 30 min, room temperature; eluted with 75 mM GSH, bound GFP read by fluorescence; bare resin subtracted; one site-specific binding fit
[2] = molecular target: His(6)GFP–AnkBD (ankyrin-binding domain of erythrocyte β-spectrin, repeats 14–15) (human) (UniProt P11277); experiment: BLI; Octet K2; His(6)GFP–AnkBD loaded on Ni2+-NTA biosensor tips; GST-ZZUD or GST-ZZUDL1340P 0–2.5 µM in solution; 30 °C; 50 mM Tris–HCl, 150 mM NaCl, 2 mM DTT, pH 7.5; association 300 s, dissociation 300 s; curves compared by amplitude
Chain of UniProt P11277 (P11277 whole entry, the tested form may be a part): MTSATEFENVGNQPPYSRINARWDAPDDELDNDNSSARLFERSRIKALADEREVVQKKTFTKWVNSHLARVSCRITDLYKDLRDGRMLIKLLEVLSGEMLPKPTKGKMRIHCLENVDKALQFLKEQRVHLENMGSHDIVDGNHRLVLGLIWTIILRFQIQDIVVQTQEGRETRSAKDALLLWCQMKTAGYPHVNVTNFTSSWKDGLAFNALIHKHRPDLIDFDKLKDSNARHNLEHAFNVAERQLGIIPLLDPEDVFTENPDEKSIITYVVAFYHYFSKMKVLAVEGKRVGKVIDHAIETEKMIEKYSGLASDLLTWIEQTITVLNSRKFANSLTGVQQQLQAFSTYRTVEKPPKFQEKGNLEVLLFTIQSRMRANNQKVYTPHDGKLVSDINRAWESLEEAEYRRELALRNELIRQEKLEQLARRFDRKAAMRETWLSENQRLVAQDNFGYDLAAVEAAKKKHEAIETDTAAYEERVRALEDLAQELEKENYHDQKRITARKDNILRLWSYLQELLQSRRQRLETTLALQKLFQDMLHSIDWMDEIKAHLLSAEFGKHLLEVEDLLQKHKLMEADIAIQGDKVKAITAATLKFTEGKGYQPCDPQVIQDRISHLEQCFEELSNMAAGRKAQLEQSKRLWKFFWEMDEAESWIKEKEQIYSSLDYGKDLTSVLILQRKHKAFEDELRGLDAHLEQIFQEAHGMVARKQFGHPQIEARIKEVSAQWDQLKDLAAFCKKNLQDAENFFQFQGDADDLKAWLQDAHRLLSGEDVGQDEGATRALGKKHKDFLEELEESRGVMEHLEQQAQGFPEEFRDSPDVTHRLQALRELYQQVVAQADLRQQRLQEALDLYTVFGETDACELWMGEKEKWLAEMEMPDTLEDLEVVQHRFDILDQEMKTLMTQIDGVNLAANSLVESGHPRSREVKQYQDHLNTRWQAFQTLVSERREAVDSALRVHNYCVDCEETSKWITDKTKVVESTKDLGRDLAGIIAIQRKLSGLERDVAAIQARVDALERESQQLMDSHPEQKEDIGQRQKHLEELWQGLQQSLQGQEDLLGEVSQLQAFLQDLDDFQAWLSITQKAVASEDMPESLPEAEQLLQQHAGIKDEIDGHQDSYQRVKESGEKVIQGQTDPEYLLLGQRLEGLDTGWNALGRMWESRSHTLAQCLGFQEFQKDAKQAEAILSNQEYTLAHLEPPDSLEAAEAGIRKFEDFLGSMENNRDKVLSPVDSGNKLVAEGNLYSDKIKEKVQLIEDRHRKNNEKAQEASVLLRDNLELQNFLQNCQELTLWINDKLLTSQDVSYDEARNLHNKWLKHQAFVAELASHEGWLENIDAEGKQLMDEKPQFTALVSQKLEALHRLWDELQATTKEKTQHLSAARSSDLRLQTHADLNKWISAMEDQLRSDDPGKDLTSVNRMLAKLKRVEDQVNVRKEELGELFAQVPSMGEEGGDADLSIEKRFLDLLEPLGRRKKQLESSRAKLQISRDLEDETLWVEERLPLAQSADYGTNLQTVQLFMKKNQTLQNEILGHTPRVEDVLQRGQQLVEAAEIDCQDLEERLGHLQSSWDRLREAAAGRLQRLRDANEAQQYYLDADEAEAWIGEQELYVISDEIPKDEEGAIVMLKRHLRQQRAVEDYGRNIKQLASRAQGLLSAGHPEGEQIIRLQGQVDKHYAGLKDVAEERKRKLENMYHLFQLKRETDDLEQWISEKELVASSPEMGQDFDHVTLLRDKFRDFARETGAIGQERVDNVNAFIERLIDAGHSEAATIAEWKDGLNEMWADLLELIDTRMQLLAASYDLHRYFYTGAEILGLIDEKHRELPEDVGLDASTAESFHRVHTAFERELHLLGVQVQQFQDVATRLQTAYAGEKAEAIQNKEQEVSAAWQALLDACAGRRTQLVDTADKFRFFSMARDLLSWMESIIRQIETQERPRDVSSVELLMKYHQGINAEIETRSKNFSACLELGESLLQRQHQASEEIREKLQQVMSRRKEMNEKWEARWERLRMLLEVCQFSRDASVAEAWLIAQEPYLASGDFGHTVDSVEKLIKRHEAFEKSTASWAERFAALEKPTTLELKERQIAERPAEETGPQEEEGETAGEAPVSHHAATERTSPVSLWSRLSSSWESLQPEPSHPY

Kd [1]: 1.04 µM
Molecule: His(6)GFP–AnkBD (ankyrin-binding domain of erythrocyte β-spectrin, repeats 14–15) (from UniProt P11277 1-2137) (domain or fragment)

fold decrease in the binding response compared to the WT [2]: 3 fold
B1: GST-ZZUDL1340P (ZZUD domain of erythrocyte ankyrin with the spherocytosis-related L1340P substitution) (domain or fragment)
chain: TGFLVSFMVDARGGSMRGSRHNGLRVVIPPRTCAAPTRITCRLVKPQKLSTPPPLAEEEGLASRIIALGPTGAQFLSPVIVEIPHFASHGRGDRELVVLRSENGSVWKEHRSRYGESYLDQILNGMDEELGSLEELEKKRVCRIITTDFPLYFVIMSRLCQDYDTIGPEGGSLKSKLVPLVQATFPENAVTKRVKLALQAQPVPDELVTKLLGNQATFSPIVTVEPRRRKFHRPIGLRIPLPPSWTDNPRDSGEGDTTSLRLLCSVIGGTDQAQWEDITGTTKLVYANECANFTTNVSARFWLSDCPRTAEAVNFATLLYKELTAVPYMAKFVIFAKMNDPREGRLRCYCMTDDKVDKTLEQHENFVEVARSRDIEVLEGMSLFAELSGNLVPVKKAAQQRSFHFQSFRENRLAMPVKVRDSSREPGGSPSFLRKAMKYEDTQHILCHLNITMPPCAKGSGAEDRRRTPTPLALRYSILSESTPGSLSGTEQAEMKMAVISEHLGLSWAELARELQFSVEDINRIRVENPNSLLEQSVALLNLWVIREGQNANMENLYTALQSIDRGEIVNMLEGSGRQSRN
